Numbering of substitutions follows the chain as printed. “And” between values parts separate entries of the source, which are not always exact repeats. Identical values can stand only once. Like-named read-outs stand apart in the source and are kept apart here.
B1: EflACE2-Fc-H429Y (Fc fusion)
chain: ETGSTIEEQAKYFLDKFNHEAEDLFYQSSLASWNYNTNITEENVQNMNNAGDKWSAFLKEQSTTAQMYPLQEIQNLTVKLQLQALQQNGSSVLSEDKSKRLNTILNTMSTIYSTGKVCNPDNPQECLLLEPGLNEIMANSLDYNERLWAWESWRSEVGKQLRPLYEEYVVLKNEMARANHYEDYGDYWRGDYEVNGVDGYDYSRGQLIEDVEHTFEEIKPLYEHLHAYVRAKLMNAYPSYISPIGCLPAHLLGDMWGRFWTNLYSLTVPFGQKPNIDVTDAMVDQAWDAQRIFKEAEKFFVSVGLPNMTQGFWEYSMLTDPGNVQKAVCHPTAWDLGKGDFRILMCTKVTMDDFLTAHHEMGHIQYDMAYAAQPFLLRNGANEGFHEAVGEIMSLSAATPKHLKSIGLLSPDFQEDNETEINFLLKQALTIVGTLPFTYMLEKWRWMVFKGEIPKDQWMKKWWEMKREIVGVVEPVPHDETYCDPASLFHVSNDYSFIRYYTRTLYQFQFQEALCQAAKHEGPLHKCDISNSTEAGQKLFNMLRLGKSEPWTLALENVVGAKNMNVRPLLNYFEPLFTWLKDQNKNSFVGWSTDWSPYADQSIKVRISLKSALGDRAYEWNDNEMYLFRSSVAYAMRQYFLKVKNQMILFGEEDVRVANLKPRISFNFFVTAPKNVSDIIPRTEVEKAIRMSRSRINDAFRLNDNSLEFLGIQPTLGPPNQPPVSGGGGSTHTCPPCPAPELLGGPSVFLFPPKPKDTLMISRTPEVTCVVVDVSHEDPEVKFNWYVDGVEVHNAKTKPREEQYNSTYRVVSVLTVLHQDWLNGKEYKCKVSNKALPAPIEKTISKAKGQPREPQVYTLPPSREEMTKNQVSLTCLVKGFYPSDIAVEWESNGQPENNYKTTPPVLDSDGSFFLYSKLTVDKSRWQQGNVFSCSVMYEALHNHYTQKSLSLSPGK
notes: also called EflACE2-Fc-H429Yoli; Yoli
B2: EflACE2-Fc-H429F (Fc fusion)
chain: B1 chain with Y937F
notes: also called EflACE2-Fc F

Assays:
[1] = molecular target: SARS-CoV-2 spike protein on virus (CoV/Australia/VIC01/2020) (SARS-CoV-2, UniProt P0DTC2 14-1273); assay: cell-based or functional assay
[2] = molecular target: T1, SARS-CoV-2 RBD-Ig (SARS-CoV-2; mouse, UniProt P0DTC2 319-541)
[3] = molecular target: SARS-CoV-2 spike protein expressed on Ramos-S cells (SARS-CoV-2, UniProt P0DTC2 14-1273)
[4] = molecular target: T1, SARS-CoV-2 RBD-Ig; assay: ELISA: ACE2-Fc titrated on immobilised RBD-Ig (A450), curve fit

| Binder | fold of neutralisation activity over unfused trACE2 [1] | EC50 [2] | EC50 [3] | EC50 [4] |
| --- | --- | --- | --- | --- |
| B1 | > 600 fold | 380 pM and 600 pM | – | – |
| B2 | – | – | 2100 pM | 210 pM |

From patent US20260158160A1 (MACFARLANE BURNET INSTITUTE FOR MEDICAL RESEARCH AND PUBLIC …, published 2026)
